Test results as given in patent publication US20190153089A1 (NUMAB INNOVATION, published 2019).

B1: recombinant human TNFβ (Peprotech, Cat. No. 300-01B) (ligand, UniProt P01374 35-205, looked up)
chain: LPGVGLTPSAAQTARQHPKMHLAHSTLKPAAHLIGDPSKQNSLLWRANTDRAFLQDGFSLSNNSLLVPTSGIYFVYSQVVFSGKAYSPKATSSPLYLAHEVQLFSSQYPFHVPLLSSQKMVYPGLQEPWLHSMYHGAAFQLTQGDQLSTHTDGIPHLVLSPSTVFFGAFAL
B2: humanized scFv 17-21-A01-sc01 (CDR graft) (scFv)
scFv: MDIQMTQSPSSLSASVGDRVTITCQASESIGNALAWYQQKPGKAPKLLIYSASTLASGVPSRFSGSGSGTDFTLTISSLQPEDFATYYCQSYYYSSSGSYVAFGGGTKLTVLGGGGGSGGGGSGGGGSGGGGSEVQLVESGGGLVQPGGSLRLSCAASGIDFNKYYFMCWVRQAPGKGLEWIGCINTGSGSTYYATWAKGRFTISRDNSKNTVYLQMNSLRAEDTAVYYCARASGSSSVVYIGVYFSLWGQGTLVTVSS
B3: humanized scFv 17-21-A01-sc03 (CDR graft with disulfide bridge, CDR/DS) (scFv)
scFv: MDIQMTQSPSSLSASVGDRVTITCQASESIGNALAWYQQKPGKAPKLLIYSASTLASGVPSRFSGSGSGTDFTLTISSLQPEDFATYYCQSYYYSSSGSYVAFGCGTKLTVLGGGGGSGGGGSGGGGSGGGGSEVQLVESGGGLVQPGGSLRLSCAASGIDFNKYYFMCWVRQAPGKCLEWIGCINTGSGSTYYATWAKGRFTISRDNSKNTVYLQMNSLRAEDTAVYYCARASGSSSVVYIGVYFSLWGQGTLVTVSS
notes: A disulfide bridge was introduced between residues VL141-VH51; also called 17-21-A01-sc03 (CDR/DS)

Columns and labels:
[1] = molecular target: B2; experiment: competition ELISA: unlabeled TNFβ against biotinylated TNFα on coated scFv; scFv 17-21-A01-sc01
Experimental: (§1) For this purpose, the scFvs were coated on a 96-well Maxisorp ELISA plate at a concentration of […]. […] To control precision of the response, the dose-response curves were analyzed in duplicate.

[2] = molecular target: B3; experiment: competition ELISA: unlabeled TNFβ against biotinylated TNFα on coated scFv; scFv 17-21-A01-sc03
Experimental: as §1

[3] = molecular target: B2; experiment: competition ELISA: unlabeled TNFβ or TNFα against biotinylated TNFα on coated scFv
Experimental: as §1

[4] = molecular target: B3; experiment: as above
Experimental: as §1

[5] = molecular target: T1, recombinant human TNFα (Peprotech, Cat. No. 300-01) (human, UniProt P01375 77-233, biotinylated in the inhibition and competition ELISAs; unlabelled elsewhere); experiment: SPR (MASS-1), TNFα immobilized, scFv 45-1.4 nM
T1 construct: The biotinylated form is kept under this id; also called tumor necrosis factor alpha; TNFαtrimer
T1 sequence (P01375 77-233 limits assumed): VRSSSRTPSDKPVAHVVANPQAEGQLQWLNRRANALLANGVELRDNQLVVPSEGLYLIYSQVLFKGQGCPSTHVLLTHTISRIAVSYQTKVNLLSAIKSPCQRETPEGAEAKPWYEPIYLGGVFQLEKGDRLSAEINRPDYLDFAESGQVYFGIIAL
Experimental: (§2) In a second step, for the best performing scFvs, Single Injection Cycle Kinetics (SiCK) were measured from a single injection cycle by simultaneously injecting six analyte samples at different concentrations into each of the eight parallel channels in the MASS-1 system. […] The apparent dissociation (kd) and association (kₐ) rate constants and the apparent dissociation equilibrium constant (KD) were calculated with the MASS-1 analysis software (Analyzer, Sierra Sensors) using one-to-one Langmuir binding model and quality of the fits was monitored based on Chi², which is a measure for the quality of the curve fitting. The smaller the value for the Chi² the more accurate is the fitting to the one-to-one Langmuir binding model. For affinity screenings, results were deemed valid if the Chi² was below 10 for the concentration analyzed. In cases where several scFv concentrations were analyzed, results were deemed valid if the average Chi² over all the concentrations tested was below 10.

[6] = molecular target: T2, recombinant Cynomolgus monkey TNFα (Sino Biological, Cat. No. 90018-CNAE) (Cynomolgus monkey (Macaca fascicularis), UniProt P79337 77-233); experiment: SPR (MASS-1), TNFα immobilized, scFv 45-1.4 nM
T2 construct: also called Cyno TNFα; Cynomolgus TNFα
T2 sequence (P79337 77-233 limits assumed): as the sequence (P01375 77-233 limits assumed) above, with L37V, R44T, T72N, R138L counted along it
Experimental: as §2

[7] = molecular target: T3, Rhesus monkey TNFα (R&D Systems, Cat. No. 1070-RM-025/CF) (Rhesus monkey (Macaca mulatta), UniProt P48094 77-233); experiment: SPR (MASS-1), TNFα immobilized, scFv 45-1.4 nM
T3 construct: also called Rhesus TNFα; Macaca mulatta TNFα
T3 sequence (P48094 77-233 limits assumed): as the sequence (P01375 77-233 limits assumed) above, with R44T, T72N, R138L counted along it
Experimental: as §2

[8] = molecular target: T1, recombinant human TNFα (Peprotech, Cat. …); experiment: cell-based or functional assay
[9] = molecular target: T2, recombinant Cynomolgus monkey TNFα …; experiment: cell-based or functional assay
[10] = molecular target: T3, Rhesus monkey TNFα (R&D Systems, Cat. …); experiment: cell-based or functional assay
[11] = molecular target: B1; experiment: competition ELISA: unlabeled TNFβ against biotinylated TNFα on coated scFv
Experimental: as §1

[12] = molecular target: T1, recombinant human TNFα (Peprotech, Cat. …); experiment: inhibition ELISA, biotinylated TNFα (960 pM) preincubated with scFv, binding to coated TNFRII-Fc
Description: (§3) For the first inhibition ELISA, the extracellular domain of TNFRI fused to the Fc region of human IgG (R&D Systems, Cat. No. 372-RI) was coated on a 96-well Maxisorp ELISA at a concentration of […]. For the second inhibition ELISA, the extracellular domain of TNFRII fused to the Fc region of human IgG (R&D Systems, Cat. No. 726-R2) was coated at a concentration of […]. All subsequent steps were identical for both assays.

[13] = molecular target: T2, recombinant Cynomolgus monkey TNFα …; experiment: SPR
Experimental: as §2

[14] = molecular target: T3, Rhesus monkey TNFα (R&D Systems, Cat. …); experiment: SPR
Experimental: as §2

[15] = molecular target: T1, recombinant human TNFα (Peprotech, Cat. …); experiment: inhibition ELISA, biotinylated TNFα (960 pM) preincubated with scFv, binding to coated TNFRI-Fc
Description: as §3

Binder	Kd [5]	koff [5]	kon [5]	Potency, rel. IC50 in L929 assay (IC50 infliximab / IC50 scFv, ng/mL) [8]	Potency, rel. IC90 in L929 assay (IC90 infliximab / IC90 scFv, ng/mL) [8]	Species-specificity IC50, L929 assay with human TNFα [8]	Species-specificity IC50, L929 assay with Cynomolgus TNFα [9]	Species-specificity IC50, L929 assay with Rhesus TNFα [10]	binding result [11]	IC50 [12]	rel. IC50 (IC50 infliximab / IC50 scFv, ng/mL) [12]	rel. IC90 (IC90 infliximab / IC90 scFv, ng/mL) [12]	IC50 [15]	rel. IC50 (IC50 infliximab / IC50 scFv, ng/mL) [15]	rel. IC90 (IC90 infliximab / IC90 scFv, ng/mL) [15]	also measured
B1	–	–	–	–	–	–	–	–	–	–	–	–	–	–	–	IC50 [1]: > 1250 µg/mL; IC50 [2]: > 1250 µg/mL; Target selectivity, rel. IC50 of TNFβ vs TNFα [3]: > 10000 fold; Target selectivity, rel. IC50 of TNFβ vs TNFα [4]: > 10000 fold
B2	0.21 nM	0.00014 s⁻¹	660000 M⁻¹ s⁻¹	9.2 fold	12.2 fold	0.0014 µg/mL	0.193 µg/mL	0.111 µg/mL	no binding (tested: 1250 µg/mL)	0.0541 µg/mL	2.2 fold	0.8 fold	0.0316 µg/mL	2.9 fold	2 fold	Kd [6]: 2.4 nM; koff [6]: 0.0016 s⁻¹; kon [6]: 650000 M⁻¹ s⁻¹; Kd [7]: 2.5 nM; koff [7]: 0.0019 s⁻¹; kon [7]: 760000 M⁻¹ s⁻¹; fold difference in affinity against human TNFα [13]: ~5 fold; fold difference in affinity against human TNFα [14]: ~5 fold
B3	0.27 nM	0.00011 s⁻¹	400000 M⁻¹ s⁻¹	6.5 fold	6.4 fold	0.0012 µg/mL	0.0506 µg/mL	0.0542 µg/mL	no binding (tested: 1250 µg/mL)	0.0467 µg/mL	2.6 fold	0.8 fold	0.0502 µg/mL	1.8 fold	1.8 fold	–
